Reference: article doi:10.1101/2021.02.04.429857 (bioRxiv, 2021)

Target: the molecule itself
Experiment: cryo-EM structure

B1: Streptomyces coelicolor bacterioferritin (natural protein, UniProt Q9S2N0 1-167, looked up)
chain: MQGDPEVIEFLNEQLTAELTAINQYFLHAKLQDHKGWTKLAKYTRAESFDEMRHAEVLTDRILLLDGLPNYQRLFHVRVGQSVTEMFQADREVELEAIDRLRRGIEVMRAKHDITSANVFEAILADEEHHIDYLETQLDLIEKLGESLYLSTVIEQTQPDPSGPGSL
- stoichiometry N: 24
